To fix the notation:
B2: PR70 (108-575), wild type (domain or fragment)
chain: VVQTRKEEPLPPATSQSIPTFYFPRGRPQDSVNVDAVISKIESTFARFPHERATMDDMGLVAKACGCPLYWKGPLFYGAGGERTGSVSVHKFVAMWRKILQNCHDDAAKFVHLLMSPGCNYLVQEDFVPFLQDVVNTHPGLSFLKEASEFHSRYITTVIQRIFYAVNRSWSGRITCAELRRSSFLQNVALLEEEADINQLTEFFSYEHFYVIYCKFWELDTDHDLLIDADDLARHNDHALSTKMIDRIFSGAVTRGRKVQKEGKISYADFVWFLISEEDKKTPTSIEYWFRCMDLDGDGALSMFELEYFYEEQCRRLDSMAIEALPFQDCLCQMLDLVKPRTEGKITLQDLKRCKLANVFFDTFFNIEKYLDHEQKEQISLLRDGDSGGPELSDWEKYAAEEYDILVAEETAGEPWEDGFEAELSPVEQKLSALRSPLAQRPFFEAPSPLGAVDLYEYACGDEDLEPL
B4: PR70 (108-575) F128A (domain or fragment)
chain: VVQTRKEEPLPPATSQSIPTAYFPRGRPQDSVNVDAVISKIESTFARFPHERATMDDMGLVAKACGCPLYWKGPLFYGAGGERTGSVSVHKFVAMWRKILQNCHDDAAKFVHLLMSPGCNYLVQEDFVPFLQDVVNTHPGLSFLKEASEFHSRYITTVIQRIFYAVNRSWSGRITCAELRRSSFLQNVALLEEEADINQLTEFFSYEHFYVIYCKFWELDTDHDLLIDADDLARHNDHALSTKMIDRIFSGAVTRGRKVQKEGKISYADFVWFLISEEDKKTPTSIEYWFRCMDLDGDGALSMFELEYFYEEQCRRLDSMAIEALPFQDCLCQMLDLVKPRTEGKITLQDLKRCKLANVFFDTFFNIEKYLDHEQKEQISLLRDGDSGGPELSDWEKYAAEEYDILVAEETAGEPWEDGFEAELSPVEQKLSALRSPLAQRPFFEAPSPLGAVDLYEYACGDEDLEPL
B5: PR70 (108-575) D443K (domain or fragment)
chain: VVQTRKEEPLPPATSQSIPTFYFPRGRPQDSVNVDAVISKIESTFARFPHERATMDDMGLVAKACGCPLYWKGPLFYGAGGERTGSVSVHKFVAMWRKILQNCHDDAAKFVHLLMSPGCNYLVQEDFVPFLQDVVNTHPGLSFLKEASEFHSRYITTVIQRIFYAVNRSWSGRITCAELRRSSFLQNVALLEEEADINQLTEFFSYEHFYVIYCKFWELDTDHDLLIDADDLARHNDHALSTKMIDRIFSGAVTRGRKVQKEGKISYADFVWFLISEEDKKTPTSIEYWFRCMDLDGDGALSMFELEYFYEEQCRRLDSMAIEALPFQDCLCQMLKLVKPRTEGKITLQDLKRCKLANVFFDTFFNIEKYLDHEQKEQISLLRDGDSGGPELSDWEKYAAEEYDILVAEETAGEPWEDGFEAELSPVEQKLSALRSPLAQRPFFEAPSPLGAVDLYEYACGDEDLEPL

Test [1] has as its target PP2A scaffold subunit Aα (9-589) (UniProt P30153 9-589). The test is described as follows: crystal structure.
The target of test [2] is PP2A catalytic subunit Cα (1-309), methylated (UniProt P67775 1-309, fully methylated by LCMT-1 (residue not stated)). Kind of test: crystal structure.
The target in test [3] is PP2A holoenzyme containing PR70 (108-519) (UniProt P30153 9-589; P67775 1-309; Q9Y5P8 108-519). The test is described as follows: SEC.
In test [4] the target is GST-tagged PP2A core enzyme (GST-A bound to PP2Ac) (UniProt P30153 9-589; P67775 1-309). The test is described as follows: pull-down.
Another test concerns the target T1, PR70 (108-575) R398D (UniProt Q9Y5P8 108-575, R398D).
T1 sequence: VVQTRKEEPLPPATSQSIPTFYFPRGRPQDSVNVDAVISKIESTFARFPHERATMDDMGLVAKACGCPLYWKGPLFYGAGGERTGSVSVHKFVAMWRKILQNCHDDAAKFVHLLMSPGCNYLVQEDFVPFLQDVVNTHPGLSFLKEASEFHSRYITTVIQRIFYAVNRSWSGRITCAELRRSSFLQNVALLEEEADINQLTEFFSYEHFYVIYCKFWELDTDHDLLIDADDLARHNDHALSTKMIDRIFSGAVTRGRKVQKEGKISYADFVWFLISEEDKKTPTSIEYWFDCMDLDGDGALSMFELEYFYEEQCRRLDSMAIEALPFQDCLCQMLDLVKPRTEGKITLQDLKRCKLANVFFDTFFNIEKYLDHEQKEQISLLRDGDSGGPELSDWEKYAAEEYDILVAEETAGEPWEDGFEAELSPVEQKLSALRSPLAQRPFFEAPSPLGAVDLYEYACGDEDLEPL
Kind of test: pull-down.

In test [5] the target is B2. Kind of test: pull-down.
In the test “PR70 (108-575) F128A” the target is B4. The test is described as follows: pull-down.
The test “PR70 (108-575) D443K” addresses B5. Kind of test: pull-down.
Test [6] addresses PP2A core enzyme (Aα-Cα heterodimer) (UniProt P30153 9-589; P67775 1-309). Kind of test: SEC. (In general: SEC sorts molecules by how far they enter the pores of the column.)

Data on seven molecules can be found in paper PMC3698643 (Cell Research, 2013).

B1: PR70 (122-490) fused to Cdc6 (70-90) via a flexible linker (other)
chain: SQSIPTFYFPRGRPQDSVNVDAVISKIESTFARFPHERATMDDMGLVAKACGCPLYWKGPLFYGAGGERTGSVSVHKFVAMWRKILQNCHDDAAKFVHLLMSPGCNYLVQEDFVPFLQDVVNTHPGLSFLKEASEFHSRYITTVIQRIFYAVNRSWSGRITCAELRRSSFLQNVALLEEEADINQLTEFFSYEHFYVIYCKFWELDTDHDLLIDADDLARHNDHALSTKMIDRIFSGAVTRGRKVQKEGKISYADFVWFLISEEDKKTPTSIEYWFRCMDLDGDGALSMFELEYFYEEQCRRLDSMAIEALPFQDCLCQMLDLVKPRTEGKITLQDLKRCKLANVFFDTFFNIEKYLDHEQKEQISLLRSTGNASDSSSDSSSSEGDGTVLPPCSPPKQGKKENGPPHSHT
Take B1: the binding result in test [1] and in test [2] was “binds” in each case.

Turning to KALPLSPRKRLGDDNLCNTPHLPPCSPPKQGKKENGPPHSHT (domain or fragment) [GST-Cdc6 (49-90)], the binding result in test [3] is “binds”.

Consider B2, for which the binding result in [4] is “binds”.

B3: GST-Cdc6 (18-90) (domain or fragment)
chain: KLSRALNKAKNSSDAKLEPTNVQTVTCSPRVKALPLSPRKRLGDDNLCNTPHLPPCSPPKQGKKENGPPHSHT
Regarding B3, the binding result (with PR70 (108-575) R398D; in test [5]; in the test with PR70 (108-575) F128A; with PR70 (108-575) D443K) was “binds” throughout.

For B4, the “fold reduction of binding affinity against wild-type PR70 (108-575)” value in test [4] is around 4 fold.

For the molecule B5, in test [4], the “fold reduction of binding affinity against wild-type PR70 (108-575)” value was around 2 fold.

B6: PR70 (108-519) (domain or fragment)
chain: VVQTRKEEPLPPATSQSIPTFYFPRGRPQDSVNVDAVISKIESTFARFPHERATMDDMGLVAKACGCPLYWKGPLFYGAGGERTGSVSVHKFVAMWRKILQNCHDDAAKFVHLLMSPGCNYLVQEDFVPFLQDVVNTHPGLSFLKEASEFHSRYITTVIQRIFYAVNRSWSGRITCAELRRSSFLQNVALLEEEADINQLTEFFSYEHFYVIYCKFWELDTDHDLLIDADDLARHNDHALSTKMIDRIFSGAVTRGRKVQKEGKISYADFVWFLISEEDKKTPTSIEYWFRCMDLDGDGALSMFELEYFYEEQCRRLDSMAIEALPFQDCLCQMLDLVKPRTEGKITLQDLKRCKLANVFFDTFFNIEKYLDHEQKEQISLLRDGDSGGPELSDWEKYAAEEYDILVAEETA
As for B6, in [6], the binding result is “binds”.
